Patent US20240343823A1 (Ablynx, published 2024)
Read-outs that look alike come from different tables or passages of the source.

Assays:
Assay in all cases: cell-based or functional assay
[1] = biological target: T1, human GPC3 on tumor cell lines (HepG2, Huh-7, NCI-H661, MKN-45, NCI-H23, BxPC-3, NCI-H292) (human, UniProt P51654 25-554)
[2] = biological target: T1, human GPC3 on tumor cell lines (HepG2, …); remark: listed apart in the source
[3] = biological target: T1, human GPC3 on tumor cell lines (HepG2, …); remark: listed apart in the source
[4] = biological target: T1, human GPC3 on tumor cell lines (HepG2, …); remark: listed apart in the source
[5] = biological target: T1, human GPC3 on tumor cell lines (HepG2, …); remark: listed apart in the source

B1: A022600131 (other)
chain: DVQLVESGGGVVQPGGSLRLSCVASGYVHKINFYGWYRQAPGKEREKVAHISIGDQTDYADSAKGRFTISRDESKNTVYLQMNSLRPEDTALYYCRALSRIWPYDYWGQGTLVTVSSGGGGSEVQLVESGGGLVQPGGSLRLSCVASGFTFSSFAMTWVRRPPGKGLEWVATITNGGVTSYRDSVKGRFTISRDNAKNTLYLEMTSLNPEDTAVYICANARRTGPRAPTDIGSYRGQGTLVTVSSGGGGSGGGGSGGGGSGGGGSEVQLVESGGGLVQPGGSLRLSCVASGSIFRSVFSSSTMEWYRQPPGKKRELVARIAPGDGTNYGALYADSVKGRFTISRDDAKKTVDLQMNSLKPEDTGVYFCASGVAWGQGTLVTVSSGGGGSGGGGSGGGGSGGGGSGGGGSGGGGSGGGGSEVQLVESGGGVVQPGGSLRLSCAASGFTFRSFGMSWVRQAPGKGPEWVSSISGSGSDTLYADSVKGRFTISRDNSKNTLYLQMNSLRPEDTALYYCTIGGSLSRSSQGTLVTVSSA
- IC50 (M), Incucyte human TDC HepG2-Nuclight green assay [1]: 4.44e-10 M
- Max % Killing, Incucyte human TDC HepG2-Nuclight green assay [1]: 94%

B2: A022600134 (other)
chain: DVQLVESGGGVVQPGGSLRLSCVASGYVHKINFYGWYRQAPGKEREKVAHISIGDQTDYADSAKGRFTISRDESKNTVYLQMNSLRPEDTALYYCRALSRIWPYDYWGQGTLVTVSSGGGGSEVQLVESGGGLVQPGGSLRLSCVASGSIFRSVFSSSTMEWYRQPPGKKRELVARIAPGDGTNYGALYADSVKGRFTISRDDAKKTVDLQMNSLKPEDTGVYFCASGVAWGQGTLVTVSSGGGGSGGGGSGGGGSGGGGSEVQLVESGGGLVQPGGSLRLSCVASGFTFSSFAMTWVRRPPGKGLEWVATITNGGVTSYRDSVKGRFTISRDNAKNTLYLEMTSLNPEDTAVYICANARRTGPRAPTDIGSYRGQGTLVTVSSGGGGSGGGGSGGGGSGGGGSGGGGSGGGGSGGGGSEVQLVESGGGVVQPGGSLRLSCAASGFTFRSFGMSWVRQAPGKGPEWVSSISGSGSDTLYADSVKGRFTISRDNSKNTLYLQMNSLRPEDTALYYCTIGGSLSRSSQGTLVTVSSA
- IC50 (M), Incucyte human TDC HepG2-Nuclight green assay [1]: 5.28e-10 M
- Max % Killing, Incucyte human TDC HepG2-Nuclight green assay [1]: 92%

B3: A022600105 (other)
chain: DVQLVESGGGVVQPGGSLRLSCVASGYVHKINFYGWYRQAPGKEREKVAHISIGDQTDYADSAKGRFTISRDESKNTVYLQMNSLRPEDTALYYCRALSRIWPYDYWGQGTLVTVSSGGGGSGGGGSGGGGSGGGGSEVQLVESGGGLVQPGGSLRLSCVASGFTFSSFAMTWVRRPPGKGLEWVATITNGGVTSYRDSVKGRFTISRDNAKNTLYLEMTSLNPEDTAVYICANARRTGPRAPTDIGSYRGQGTLVTVSSGGGGSGGGGSGGGGSGGGGSGGGGSGGGGSGGGGSEVQLVESGGGVVQPGGSLRLSCAASGFTFRSFGMSWVRQAPGKGPEWVSSISGSGSDTLYADSVKGRFTISRDNSKNTLYLQMNSLRPEDTALYYCTIGGSLSRSSQGTLVTVSSA
- IC50 (M), Incucyte human TDC HepG2-Nuclight green assay [2]: 2.14e-09 M
- Max % Killing, Incucyte human TDC HepG2-Nuclight green assay [2]: 85%

B4: A022600135 (other)
chain: DVQLVESGGGVVQPGGSLRLSCVASGYVHKINFYGWYRQAPGKEREKVAHISIGDQTDYADSAKGRFTISRDESKNTVYLQMNSLRPEDTALYYCRALSRIWPYDYWGQGTLVTVSSGGGGSEVQLVESGGGLVQPGGSLRLSCVASGSIFRSVFSSSTMEWYRQPPGKKRELVARIAPGDGTNYGALYADSVKGRFTISRDDAKKTVDLQMNSLKPEDTGVYFCASGVAWGQGTLVTVSSGGGGSGGGSEVQLVESGGGLVQPGGSLRLSCVASGFTFSSFAMTWVRRPPGKGLEWVATITNGGVTSYRDSVKGRFTISRDNAKNTLYLEMTSLNPEDTAVYICANARRTGPRAPTDIGSYRGQGTLVTVSSGGGGSGGGGSGGGGSGGGGSGGGGSGGGGSGGGGSEVQLVESGGGVVQPGGSLRLSCAASGFTFRSFGMSWVRQAPGKGPEWVSSISGSGSDTLYADSVKGRFTISRDNSKNTLYLQMNSLRPEDTALYYCTIGGSLSRSSQGTLVTVSSA
- IC50 (M), Incucyte human TDC HepG2-Nuclight green assay [1]: 6.11e-10 M
- Max % Killing, Incucyte human TDC HepG2-Nuclight green assay [1]: 91%

B5: A022600104 (other)
chain: DVQLVESGGGVVQPGGSLRLSCVASGYVHKINFYGWYRQAPGKEREKVAHISIGDQTDYADSAKGRFTISRDESKNTVYLQMNSLRPEDTALYYCRALSRIWPYDYWGQGTLVTVSSGGGGSGGGSEVQLVESGGGLVQPGGSLRLSCVASGFTFSSFAMTWVRRPPGKGLEWVATITNGGVTSYRDSVKGRFTISRDNAKNTLYLEMTSLNPEDTAVYICANARRTGPRAPTDIGSYRGQGTLVTVSSGGGGSGGGGSGGGGSGGGGSGGGGSGGGGSGGGGSEVQLVESGGGVVQPGGSLRLSCAASGFTFRSFGMSWVRQAPGKGPEWVSSISGSGSDTLYADSVKGRFTISRDNSKNTLYLQMNSLRPEDTALYYCTIGGSLSRSSQGTLVTVSSA
- IC50 (M), Incucyte human TDC HepG2-Nuclight green assay [2]: 2.13e-09 M
- Max % Killing, Incucyte human TDC HepG2-Nuclight green assay [2]: 90%

B6: A022600174 (other)
chain: DVQLVESGGGVVQPGGSLRLSCVASGYVHKINFYGWYRQAPGKEREKVAHISIGDQTDYADSAKGRFTISRDESKNTVYLQMNSLRPEDTAAYYCRALSRIWPYDYWGQGTLVTVSSGGGGSEVQLVESGGGLVQPGGSLRLSCVASGFTFSSFAMTWVRRPPGKGLEWVATITNGGVTSYRDSVKGRFTISRDNAKNTLYLEMTSLNPEDTAVYICANARRTGPRAPTDIGSYRGQGTLVTVSSGGGGSGGGSEVQLVESGGGLVQPGGSLRLSCVASGSIFRSVFSSSTMEWYRQPPGKKRELVARIAPGDGTNYGALYADSVKGRFTISRDDAKKTVDLQMNSLKPEDTGVYFCASGVAWGQGTLVTVSSGGGGSGGGSEVQLVESGGGVVQPGGSLRLSCAASGFTFRSFGMSWVRQAPGKGPEWVSSISGSGSDTLYADSVKGRFTISRDNSKNTLYLQMNSLRPEDTALYYCTIGGSLSRSSQGTLVTVSSA
- HepG2 on Incucyte IC50 [3]: 0.673 nM
- HepG2 on Incucyte Max % killing [3]: 96%
- Huh7 on xCELLigence IC50 [3]: 0.0626 nM
- Huh7 on xCELLigence Max % killing [3]: 99%
- HepG2 on Incucyte IC50 [4]: 0.673 nM
- HepG2 on Incucyte Max % killing [4]: 96%
- Huh7 on xCELLigence IC50 [4]: 0.0626 nM
- Huh7 on xCELLigence Max % killing [4]: 99%

B7: A022600132 (other)
chain: DVQLVESGGGVVQPGGSLRLSCVASGYVHKINFYGWYRQAPGKEREKVAHISIGDQTDYADSAKGRFTISRDESKNTVYLQMNSLRPEDTALYYCRALSRIWPYDYWGQGTLVTVSSGGGGSEVQLVESGGGLVQPGGSLRLSCVASGFTFSSFAMTWVRRPPGKGLEWVATITNGGVTSYRDSVKGRFTISRDNAKNTLYLEMTSLNPEDTAVYICANARRTGPRAPTDIGSYRGQGTLVTVSSGGGGSGGGSEVQLVESGGGLVQPGGSLRLSCVASGSIFRSVFSSSTMEWYRQPPGKKRELVARIAPGDGTNYGALYADSVKGRFTISRDDAKKTVDLQMNSLKPEDTGVYFCASGVAWGQGTLVTVSSGGGGSGGGGSGGGGSGGGGSGGGGSGGGGSGGGGSEVQLVESGGGVVQPGGSLRLSCAASGFTFRSFGMSWVRQAPGKGPEWVSSISGSGSDTLYADSVKGRFTISRDNSKNTLYLQMNSLRPEDTALYYCTIGGSLSRSSQGTLVTVSSA
- HepG2 on Incucyte IC50 [5]: 0.683 nM
- HepG2 on Incucyte Max % killing [5]: 83%
- Huh7 on xCELLigence IC50 [5]: 0.29 nM
- Huh7 on xCELLigence Max % killing [5]: 95%
- IC50 (M), Incucyte human TDC HepG2-Nuclight green assay [1]: 7.02e-10 M
- Max % Killing, Incucyte human TDC HepG2-Nuclight green assay [1]: 91%

B8: A022600122 (other)
chain: DVQLVESGGGVVQPGGSLRLSCVASGYVHKINFYGWYRQAPGKEREKVAHISIGDQTDYADSAKGRFTISRDESKNTVYLQMNSLRPEDTALYYCRALSRIWPYDYWGQGTLVTVSSGGGGSEVQLVESGGGLVQPGGSLRLSCVASGFTFSSFAMTWVRRPPGKGLEWVATITNGGVTSYRDSVKGRFTISRDNAKNTLYLEMTSLNPEDTAVYICANARRTGPRAPTDIGSYRGQGTLVTVSSGGGGSGGGGSGGGGSGGGGSGGGGSGGGGSGGGGSEVQLVESGGGLVQPGGSLRLSCVASGSIFRSVFSSSTMEWYRQPPGKKRELVARIAPGDGTNYGALYADSVKGRFTISRDDAKKTVDLQMNSLKPEDTGVYFCASGVAWGQGTLVTVSSGGGGSGGGGSGGGGSGGGGSGGGGSGGGGSGGGGSEVQLVESGGGVVQPGGSLRLSCAASGFTFRSFGMSWVRQAPGKGPEWVSSISGSGSDTLYADSVKGRFTISRDNSKNTLYLQMNSLRPEDTALYYCTIGGSLSRSSQGTLVTVSSA
- HepG2 on Incucyte IC50 [5]: 0.53 nM
- HepG2 on Incucyte Max % killing [5]: 93%
- Huh7 on xCELLigence IC50 [5]: 0.261 nM
- Huh7 on xCELLigence Max % killing [5]: 101%
- IC50 (M), Incucyte human TDC HepG2-Nuclight green assay [1]: 4.45e-10 M
- Max % Killing, Incucyte human TDC HepG2-Nuclight green assay [1]: 92%

B9: A022600133 (other)
chain: DVQLVESGGGVVQPGGSLRLSCVASGYVHKINFYGWYRQAPGKEREKVAHISIGDQTDYADSAKGRFTISRDESKNTVYLQMNSLRPEDTALYYCRALSRIWPYDYWGQGTLVTVSSGGGGSEVQLVESGGGLVQPGGSLRLSCVASGSIFRSVFSSSTMEWYRQPPGKKRELVARIAPGDGTNYGALYADSVKGRFTISRDDAKKTVDLQMNSLKPEDTGVYFCASGVAWGQGTLVTVSSGGGGSGGGGSGGGGSGGGGSGGGGSGGGGSGGGGSEVQLVESGGGLVQPGGSLRLSCVASGFTFSSFAMTWVRRPPGKGLEWVATITNGGVTSYRDSVKGRFTISRDNAKNTLYLEMTSLNPEDTAVYICANARRTGPRAPTDIGSYRGQGTLVTVSSGGGGSGGGGSGGGGSGGGGSGGGGSGGGGSGGGGSEVQLVESGGGVVQPGGSLRLSCAASGFTFRSFGMSWVRQAPGKGPEWVSSISGSGSDTLYADSVKGRFTISRDNSKNTLYLQMNSLRPEDTALYYCTIGGSLSRSSQGTLVTVSSA
- IC50 (M), Incucyte human TDC HepG2-Nuclight green assay [1]: 4.08e-10 M
- Max % Killing, Incucyte human TDC HepG2-Nuclight green assay [1]: 92%
